Experimental data reported in patent US7070788.

Experiments:
[1] = biological target: hCG (LH/CG) receptor of MA-10 transformed murine Leydig cells (murine) (UniProt P30730); test: cell-based or functional assay
[2] = biological target: hCG (LH/CG) receptor of MA-10 transformed murine Leydig cells (murine) (UniProt P30730); test: competitive binding with 125I-hCG on MA-10 cells
[3] = biological target: porcine TSH receptor (solubilized porcine thyroid membranes) (porcine) (UniProt Q8SPP9); test: competitive displacement of 125I-bTSH from solubilized porcine thyroid membranes
[4] = biological target: human TSH receptor (CHO-JP09 cells) (human) (UniProt P16473); test: cell-based or functional assay
[5] = biological target: rat TSH receptor (FRTL-5 cells) (rat) (UniProt P21463); test: cell-based or functional assay
[6] = biological target: porcine TSH receptor (solubilized porcine thyroid membranes) (porcine) (UniProt Q8SPP9); test: competitive binding assay to porcine thyroid membranes

Sequence of rat TSH receptor (FRTL-5 cells) (rat) (P21463 22-764): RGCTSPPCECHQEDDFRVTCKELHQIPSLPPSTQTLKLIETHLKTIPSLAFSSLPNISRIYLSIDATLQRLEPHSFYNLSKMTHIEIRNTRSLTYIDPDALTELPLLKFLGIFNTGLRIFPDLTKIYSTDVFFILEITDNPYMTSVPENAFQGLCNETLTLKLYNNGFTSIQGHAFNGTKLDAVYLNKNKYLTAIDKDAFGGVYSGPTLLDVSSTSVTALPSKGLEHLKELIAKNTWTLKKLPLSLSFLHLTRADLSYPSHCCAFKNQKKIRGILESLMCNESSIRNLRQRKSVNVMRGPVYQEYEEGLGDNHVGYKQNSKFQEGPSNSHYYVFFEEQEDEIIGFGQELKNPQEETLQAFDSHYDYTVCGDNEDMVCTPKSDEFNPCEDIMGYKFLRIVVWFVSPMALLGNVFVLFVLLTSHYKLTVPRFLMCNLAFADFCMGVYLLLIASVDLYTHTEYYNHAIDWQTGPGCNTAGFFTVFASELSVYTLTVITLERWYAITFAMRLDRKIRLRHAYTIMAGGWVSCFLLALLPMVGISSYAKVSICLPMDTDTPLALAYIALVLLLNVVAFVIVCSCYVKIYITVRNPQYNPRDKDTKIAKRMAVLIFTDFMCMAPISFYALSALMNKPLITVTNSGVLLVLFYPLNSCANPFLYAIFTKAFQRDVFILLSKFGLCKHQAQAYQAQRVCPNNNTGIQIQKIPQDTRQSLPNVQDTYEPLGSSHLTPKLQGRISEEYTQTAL
Sequence of hCG (LH/CG) receptor of MA-10 transformed murine Leydig cells (murine) (P30730 27-700): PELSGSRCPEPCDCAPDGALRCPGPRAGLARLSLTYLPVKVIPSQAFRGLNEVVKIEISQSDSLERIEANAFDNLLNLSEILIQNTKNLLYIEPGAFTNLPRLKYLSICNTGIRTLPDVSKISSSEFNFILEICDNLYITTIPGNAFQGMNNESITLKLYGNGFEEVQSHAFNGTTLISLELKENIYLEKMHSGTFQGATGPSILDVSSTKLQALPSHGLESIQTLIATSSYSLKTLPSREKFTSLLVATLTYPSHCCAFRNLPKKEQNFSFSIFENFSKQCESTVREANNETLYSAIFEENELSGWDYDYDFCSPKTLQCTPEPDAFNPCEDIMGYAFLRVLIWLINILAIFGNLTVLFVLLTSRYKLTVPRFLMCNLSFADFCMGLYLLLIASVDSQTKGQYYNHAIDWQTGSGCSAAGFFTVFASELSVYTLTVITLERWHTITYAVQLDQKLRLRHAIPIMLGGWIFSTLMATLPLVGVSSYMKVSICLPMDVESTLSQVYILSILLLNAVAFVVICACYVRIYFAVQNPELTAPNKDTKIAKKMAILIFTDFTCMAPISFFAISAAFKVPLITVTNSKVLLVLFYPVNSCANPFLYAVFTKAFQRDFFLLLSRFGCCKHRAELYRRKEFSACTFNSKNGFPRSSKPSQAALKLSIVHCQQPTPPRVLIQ
Sequence of porcine TSH receptor (solubilized porcine thyroid membranes) (porcine) (Q8SPP9 22-764): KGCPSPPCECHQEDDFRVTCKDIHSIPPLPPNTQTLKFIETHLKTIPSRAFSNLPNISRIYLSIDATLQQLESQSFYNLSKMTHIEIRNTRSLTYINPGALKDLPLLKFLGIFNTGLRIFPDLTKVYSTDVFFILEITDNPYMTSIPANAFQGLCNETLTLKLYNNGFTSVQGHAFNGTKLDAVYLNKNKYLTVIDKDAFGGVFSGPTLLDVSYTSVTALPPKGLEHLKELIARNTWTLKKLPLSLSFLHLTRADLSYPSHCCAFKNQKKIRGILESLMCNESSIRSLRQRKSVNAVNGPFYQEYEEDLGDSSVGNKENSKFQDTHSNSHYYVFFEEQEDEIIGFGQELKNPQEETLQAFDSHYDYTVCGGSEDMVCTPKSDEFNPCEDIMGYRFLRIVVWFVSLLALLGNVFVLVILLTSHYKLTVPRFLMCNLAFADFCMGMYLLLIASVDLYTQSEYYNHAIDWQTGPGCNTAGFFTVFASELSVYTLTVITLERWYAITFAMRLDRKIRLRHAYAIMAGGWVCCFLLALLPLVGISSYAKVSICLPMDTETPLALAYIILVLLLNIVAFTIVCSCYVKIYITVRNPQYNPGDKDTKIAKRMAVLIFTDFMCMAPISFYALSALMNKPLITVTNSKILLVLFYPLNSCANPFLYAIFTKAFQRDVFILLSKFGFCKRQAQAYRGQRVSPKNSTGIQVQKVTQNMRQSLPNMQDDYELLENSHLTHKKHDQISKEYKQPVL

| Substance | Progesterone synthesis in MA10 cells, EC50 [1] [ng/mL] | Progesterone synthesis in MA10 cells, Max (%) [1] | EC25 of inhibition of 125I-bTSH binding [3] [ng/mL] | cAMP stimulation in JP09 cells, EC50 [4] [ng/mL] | cAMP stimulation in JP09 cells, Relative potency (WT = 1) (fold (WT = 1)) [4] | also measured |
| --- | --- | --- | --- | --- | --- | --- |
| hCG α-subunit double mutant P16K + Q20K (from UniProt P01215 25-116; P0DN86 21-165) (ligand) | 1.7 | 212 % of WT-hCG |  |  |  |  |
| hCG α-subunit mutant P16K with WT-hCGβ (from UniProt P01215 25-116; P0DN86 21-165) (ligand) | 2.05 | 161 % of WT-hCG |  |  |  | progesterone release assay, fold potency over wild type [1]: 3.4 fold; stimulation of progesterone production in MA-10 cells, fold over WT-hCG [1]: 4 fold; fold receptor binding activity over WT-hCG [2]: 4 fold |
| hCG α-subunit mutant Q13K (from UniProt P01215 25-116; P0DN86 21-165) (ligand) | 2.46 | 115 % of WT-hCG |  |  |  |  |
| hCG α-subunit mutant Q20K (from UniProt P01215 25-116; P0DN86 21-165) (ligand) | 2.98 | 134 % of WT-hCG |  |  |  |  |
| hCG α-subunit mutant Q50P (from UniProt P01215 25-116; P0DN86 21-165) (ligand) | 3.9 | 137 % of WT-hCG |  |  |  |  |
| hCG α-subunit mutant R67K (from UniProt P01215 25-116; P0DN86 21-165) (ligand) | 4.6 | 145 % of WT-hCG |  |  |  |  |
| hCG α-subunit mutant T11K (from UniProt P01215 25-116; P0DN86 21-165) (ligand) | 2.79 | 156 % of WT-hCG |  |  |  |  |
| hCG α-subunit quadruple mutant Q13K + P16K + Q20K + E14K (from UniProt P01215 25-116; P0DN86 21-165) (ligand) | 1.65 | 205 % of WT-hCG |  |  |  |  |
| hCG α-subunit triple mutant Q13K + P16K + Q20K (from UniProt P01215 25-116; P0DN86 21-165) (ligand) | 1.58 | 216 % of WT-hCG |  |  |  |  |
| hTSH mutant TSHβ-L69R + α Q13K + P16K + Q20K (from UniProt P01215 25-116; P01222 21-132) (ligand) |  |  | 1.8 | 0.19 | 35.3 | fold lower concentration than WT-hTSH for half-maximal stimulation of 3H-thymidine incorporation in FRTL-5 cells [5]: 27 fold |
| hTSH mutant TSHβ-L69R + α Q13K + P16K + Q20K + E14K (from UniProt P01215 25-116; P01222 21-132) (ligand) |  |  | 1.3 | 0.07 | 95.7 | efficacy (maximal response) of cAMP stimulation in CHO-JP09 cells, fold over WT-hTSH [4]: 1.5 fold |
| hTSH α-subunit double mutant P16K + Q20K (from UniProt P01215 25-116; P01222 21-132) (ligand) |  |  | 6.4 | 0.57 | 11.8 |  |
| hTSH α-subunit mutant P16K (from UniProt P01215 25-116; P01222 21-132) (ligand) |  |  | 18.3 | 1.05 | 6.4 | fold greater affinity than WT-hTSH [6]: 5 fold |
| hTSH α-subunit mutant P16K + F17T (from UniProt P01215 25-116; P01222 21-132) (ligand) |  |  |  | 3.52 | 1.9 |  |
| hTSH α-subunit mutant Q13K (from UniProt P01215 25-116; P01222 21-132) (ligand) |  |  | 22.5 | 1.89 | 3.5 |  |
| hTSH α-subunit mutant Q20K (from UniProt P01215 25-116; P01222 21-132) (ligand) |  |  | 21.3 | 1.16 | 5.8 |  |
| hTSH α-subunit mutant Q50P (from UniProt P01215 25-116; P01222 21-132) (ligand) |  |  | 77.5 | 5.54 | 1.2 |  |
| hTSH α-subunit mutant R67K (from UniProt P01215 25-116; P01222 21-132) (ligand) |  |  | 62.5 | 7.36 | 0.9 |  |
| hTSH α-subunit mutant T11K (from UniProt P01215 25-116; P01222 21-132) (ligand) |  |  | 68.3 | 4.47 | 1.5 |  |
| hTSH α-subunit quadruple mutant Q13K + P16K + Q20K + E14K (from UniProt P01215 25-116; P01222 21-132) (ligand) |  |  | 2.1 | 0.17 | 39.4 | efficacy (maximal response) of cAMP stimulation in CHO-JP09 cells, fold over WT-hTSH [4]: 1.5 fold |
| hTSH α-subunit triple mutant Q13K + P16K + Q20K with WT-hTSHβ (from UniProt P01215 25-116; P01222 21-132) (ligand) |  |  | 2.3 | 0.28 | 23.9 | fold lower concentration than WT-hTSH for half-maximal stimulation of 3H-thymidine incorporation in FRTL-5 cells [5]: 18 fold |
| hTSH β-subunit mutant E63R (from UniProt P01215 25-116; P01222 21-132) (ligand) |  |  |  |  |  | potency relative to hTSH [4]: 2 to 4 fold; potency relative to hTSH [5]: 2 to 4 fold |
| hTSH β-subunit mutant I58R (from UniProt P01215 25-116; P01222 21-132) (ligand) |  |  |  |  |  | potency relative to hTSH [4]: 2 to 4 fold; potency relative to hTSH [5]: 2 to 4 fold |
| hTSH β-subunit mutant I58R+E63R (from UniProt P01215 25-116; P01222 21-132) (ligand) |  |  |  |  |  | efficacy relative to wild type hTSH (cAMP stimulation, FIG. 2g) [4]: 1.5 fold; potency relative to wild type hTSH (cAMP stimulation, FIG. 2g) [4]: 15 fold |
| hTSH β-subunit mutant I58R+E63R+L69R (from UniProt P01215 25-116; P01222 21-132) (ligand) |  |  |  |  |  | efficacy relative to wild type hTSH (cAMP stimulation, FIG. 2g) [4]: 1.7 fold; potency relative to wild type hTSH (cAMP stimulation, FIG. 2g) [4]: 50 fold |
| hTSH β-subunit mutant TSHβ-L69R (from UniProt P01215 25-116; P01222 21-132) (ligand) |  |  |  | 2.75 | 2.4 |  |
